Measured values taken from article PMC10929192, “Hypoxia-activated selectivity-improved anti-PKM2 antibody combined with prodrug TH-302 for potentiated targeting therapy in hepatocellular carcinoma” (International Journal of Biological Sciences, 2024).

What was measured:
PKM2 Ag in HCC tissues = target: T1, PKM2 Ag in HCC tissues (Homo sapiens (HCC patient tissue), UniProt P14618); experiment: immunostaining of cells or tissue; IHC on sections of HCC patient specimens; primary Abs 0.1 mg/mL overnight at 4 °C; goat anti-human IgG-HRP; settings: one partner purified
T1 construct: M2 splice isoform of pyruvate kinase (PKM2), endogenous in human HCC tissue; source: endogenous, surgical specimens from HCC patients (tissue sections)

[1] = target: T2, human PKM2 Ag (M2 splice isoform of pyruvate kinase), purified (Homo sapiens, UniProt P14618); experiment: SPR; human PKM2 Ag (20 µg/mL, sodium acetate buffer, pH 5) on a CM5 chip; serial dilutions of the Abs injected at 20 μL/min, 120 s binding, 300 s dissociation; 1:1 kinetic binding model; Biacore T200; settings: both partners purified
T2 construct: M2 splice isoform of pyruvate kinase (PKM2), human; also called purified PKM2 antigen

[2] = target: T3, PKM2 Ag expressed in HCC cells (HepG2, Huh7) (Homo sapiens (HepG2, Huh7), UniProt P14618); experiment: flow cytometry on cells; normoxia-cultured HepG2 and Huh7 cells, EDTA-detached, Abs in serum-free medium 1 h at 37 °C; goat anti-human IgG(H+L)-RDM; settings: one partner purified
T3 construct: M2 splice isoform of pyruvate kinase (PKM2), endogenous in human HCC cell lines; living cells were incubated with the antibodies at 37 °C; the antibody is said to internalize; also called expressed PKM2 Ag; source: endogenous, HepG2 and Huh7 cells
T3 sequence (P14618 whole entry, canonical isoform): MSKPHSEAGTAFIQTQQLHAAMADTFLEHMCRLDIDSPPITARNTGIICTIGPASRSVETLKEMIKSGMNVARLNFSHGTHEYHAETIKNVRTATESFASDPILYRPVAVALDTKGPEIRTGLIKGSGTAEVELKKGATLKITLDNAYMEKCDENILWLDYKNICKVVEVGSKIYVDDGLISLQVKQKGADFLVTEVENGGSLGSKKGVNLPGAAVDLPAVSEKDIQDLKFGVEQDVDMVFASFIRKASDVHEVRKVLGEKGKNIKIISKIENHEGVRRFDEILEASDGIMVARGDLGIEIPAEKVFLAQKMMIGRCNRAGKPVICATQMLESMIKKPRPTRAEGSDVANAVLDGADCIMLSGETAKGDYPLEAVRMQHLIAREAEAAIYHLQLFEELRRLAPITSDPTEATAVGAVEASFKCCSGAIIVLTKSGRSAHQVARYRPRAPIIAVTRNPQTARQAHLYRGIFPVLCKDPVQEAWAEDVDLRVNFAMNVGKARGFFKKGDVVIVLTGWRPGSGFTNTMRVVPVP

T2 sequence (P14618 whole entry, canonical isoform): as above
T1 sequence (P14618 whole entry, canonical isoform): as above

B1: human full-length H103 Ab (anti-PKM2 antibody, IgG1) (antibody, V domains shown)
VH: QVQLQESGPGLVRPSGTLSLICAVSGDSISSSIWWSWVRQSPGKGLEWIGYIYHNGNTYYNPSLESRVTISVDTSENQFSLKLSSVTAADTAVYYCARGYDSSGYYWTDDRYYFDYWGQGTLVTVSS
VL: NFMLTQPHSVSESPGKTVTISCTGSSGSIASNYVQWYQQRPGSAPTTVIYEDNQRPPGVPDRFSGSIDSSSNSASLTISALETEDEADYYCQSYDSRNIDVVFGGGTKVTVL
notes: the first five amino acids were replaced by those of germline IGHV4-4*02; constant region of human IgG1 (from the expression vector pcMV3-H103-H); light chain constant region from the vector pcMV3-H103-L; IgG1; codon optimised; also called parental H103 Ab; parent H103 Ab
PKM2 Ag in HCC tissues
  binding result: binds
[1]
  binding result: binds

B2: Na2S2O4-cleaved HAP103 Ab (act-HAP103) (antibody, V domains shown)
VH: B1 VH
VL: B1 VL
notes: as the VH of m1; constant region of human IgG1, as in m1; as the VL of m1; as the light chain constant region of m1; IgG1; also called act-HAP103 Ab; act-HAP Ab; source: HAP103 Ab incubated with Na2S2O4 in carbonate buffer pH 8.0 at RT for 2 h, ultrafiltration
PKM2 Ag in HCC tissues
  binding result: binds
[2]
  binding result: binds
[1]
  binding result: binds
